Our source for the koff values is publication PMC3718736.

For the assay, the target named is VHH2-Fc antibody (VHH C2 fused to the Fc of human IgG1) (llama (Lama glama)). The assay is described as follows: SPR; Biacore 3000; […] (10 mM acetate pH 3.5); […]. For orientation: Surface plasmon resonance follows binding to a sensor surface in real time, without labels.

The term koff denotes the rate constant with which the complex falls apart. Higher therefore signals a short-lived complex.

VHH2-Fc antibody (VHH C2 fused to the Fc of human IgG1) (llama (Lama glama)), sequence (heavy, as listed by the source): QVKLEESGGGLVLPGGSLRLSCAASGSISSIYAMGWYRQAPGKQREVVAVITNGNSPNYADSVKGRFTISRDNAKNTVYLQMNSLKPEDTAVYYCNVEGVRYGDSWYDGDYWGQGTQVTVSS

With “α-cobratoxin (from UniProt P01391 1-71) (natural protein)”, the off-rate constant (koff) worked out at 5e-05 s⁻¹.
